Measurements taken from patent US20080107658A1 (AstraZeneca / MedImmune, published 2008).
Changes are numbered by the printed parent chain.

B1: 1126H5 human IgG4 (antibody, V domains shown)
VH: EVQLVQSGAEVKKPGSSVKVSCKASGGTFSTYGISWVRQAPGQGLEWIGGIIPIFDAGNSAQSFQGRVTITADESTSTAHMEVSSLRSEDTAVYYCASSSRIYDHHIQKGGYYDMDVWGQGTMVTVSS
VL: QAVLTQPSSVSTPPGQKVTISCSGSSSNIGNNYVSWYQQLPGTAPKLLIYDNNKRPSGIPDRFSGSKSGTSATLGITGLQTGDEADYYCGTWDSSLSAWVFGGGTKLTVL
B2: 1127D9 human IgG4 (antibody, V domains shown)
VH: EVQLVQSGAEVKKPGSSVKVSCKASGGTFSTYGISWVRQAPGQGLEWIGGIIPIFDTGNSAQSFQGRVTITADESTSTAYMEVSSLRSDDTAVYYCASSSRIYDYHTIAYYDMDVWGQGTMVTVSS
VL: B1 VL
B3: 1230H7 human IgG4 (antibody, V domains shown)
VH: EMQLVQSGAEVKKPGSSVKVSCKASGGTFSTYGISWVRQAPGQGLEWIGGIIPIFDTGNSAQSFQGRVTITADESTSTAYMEVSSLRSDDTAVYYCASSSRIYDFNSALISYYDMDVWGQGTMVTVSS
VL: QAVLTQPSSVSTPPGQKVTISCSGSSSNIGNNYVSWYQQLPGTAPKLLIYDNNKRPSGIPDRFSGSKSGTSATLGITGLQTGDEADYYCGTWDSSLSAWVFGGGTKLTV
B4: 1145D1 human IgG4 (antibody, V domains shown)
VH: B3 VH with M2V, G58S, N106R, S107T, A108L, L109Y, I110S, S111T
VL: B1 VL with P60S, T77A
B5: 1126G5 human IgG4 (antibody, V domains shown)
VH: B3 VH with M2V, N106T, A108G, I110A, S111P
VL: B1 VL with S57P, A98T
B6: 1134D9 human IgG4 (antibody, V domains shown)
VH: B3 VH with M2V, T69A, F105L, S107P, A108S, I110T, S111A
VL: B1 VL with S95G
B7: 1127F9 human IgG4 (antibody, V domains shown)
VH: B3 VH with M2V, E82K, F105Y, N106I, S107P, A108G, L109M, I110R, S111P
VL: B1 VL with S25N, K67R, S71L
B8: 1147D2 human IgG4 (antibody, V domains shown)
VH: B3 VH with M2V, K19R, V20I, I34V, F105L, S107P, A108S, I110T, S111A
VL: B1 VL with I59V
B9: 1132A9 human IgG4 (antibody, V domains shown)
VH: B3 VH with M2V, D56G, N106E, S107P, A108S, S111Y
VL: B1 VL
B10: 1146D7 human IgG4 (antibody, V domains shown)
VH: B3 VH with M2V, F105L, S107P, A108S, I110T, S111A
VL: B1 VL with K17E, S27T
B11: G1230H7 human IgG4 (antibody, V domains shown)
VH: B3 VH with E1Q, M2V, I48M, V83L, D89E, S98R
VL: B1 VL with A2S, S8P, T12A, P13A
B12: 1132H9 human IgG4 (antibody, V domains shown)
VH: B3 VH with M2V, F105L, S107P, A108S, I110T, S111A
VL: B1 VL with N28D, S57T
B13: 1126F1 human IgG4 (antibody, V domains shown)
VH: B3 VH with M2V, S7T, F105A, S107R, A108Q, L109A, I110V, S111P
VL: B1 VL with K17M, N28D
B14: 1150F1 human IgG4 (antibody, V domains shown)
VH: B3 VH with M2V, G66D, S84G, F105L, S107P, A108S, I110T, S111A, Q120H
VL: B1 VL
B15: 1131D7 human IgG4 (antibody, V domains shown)
VH: B3 VH with M2V, A108S, S111A
VL: B1 VL with A85T, G102S
B16: 1131H2 human IgG4 (antibody, V domains shown)
VH: B3 VH with M2V, S17T, F105L, S107P, A108S, I110T, S111A
VL: B1 VL with S25T

Legend:
Test in all cases: cell-based or functional assay
[1] = target: human nerve growth factor (beta-NGF) (human, UniProt P01138 122-241)
Chain of human nerve growth factor (beta-NGF) (P01138 122-241): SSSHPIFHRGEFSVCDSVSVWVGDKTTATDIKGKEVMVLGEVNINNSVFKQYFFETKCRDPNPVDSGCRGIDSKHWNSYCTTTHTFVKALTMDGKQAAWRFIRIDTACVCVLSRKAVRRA

[2] = target: rat nerve growth factor (beta-NGF) (rat, UniProt P25427 122-241)
Chain of rat nerve growth factor (beta-NGF) (P25427 122-241): as the sequence (P01138 122-241) above, with S3T, I6V, R9M, M37T, D60A, D65E, M92T, G94D, V117A, A120G counted along it

[3] = target: mouse nerve growth factor (mouse, UniProt P01139 122-241)
Chain of mouse nerve growth factor (P01139 122-241): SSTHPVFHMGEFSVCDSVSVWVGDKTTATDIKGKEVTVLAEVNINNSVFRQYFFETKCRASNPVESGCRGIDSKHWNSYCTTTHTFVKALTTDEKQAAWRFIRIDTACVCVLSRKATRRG

Row | Binder | IC50, FLIPR calcium mobilisation [1] | IC50, PC12 cell survival [1] | IC50, FLIPR calcium mobilisation [2] | IC50, FLIPR calcium mobilisation [3] | IC50, PC12 cell survival [2]
1 | B1 | 380 pM | 8700 pM | 150 pM | 230 pM | –
2 | B2 | 400 pM | 570 pM | 220 pM | 210 pM | –
3 | B3 | 270 pM | 420 pM | 180 pM | 150 pM | 320 pM
4 | B4 | 360 pM | 660 pM | 170 pM | 240 pM | –
5 | B5 | 230 pM | 1500 pM | 160 pM | 160 pM | –
6 | B6 | 310 pM | 540 pM | 140 pM | 160 pM | –
7 | B7 | 360 pM | 590 pM | 140 pM | 200 pM | –
8 | B8 | 360 pM | 510 pM | 210 pM | 240 pM | –
9 | B9 | 390 pM | 900 pM | 250 pM | 330 pM | –
10 | B10 | 380 pM | 480 pM | 330 pM | 310 pM | –
11 | B11 | 310 pM | 2500 pM | 340 pM | 250 pM | 7500 pM
12 | B12 | 350 pM | 550 pM | 130 pM | 160 pM | –
13 | B13 | 350 pM | 2900 pM | 150 pM | 220 pM | –
14 | B14 | 320 pM | 470 pM | 150 pM | 190 pM | –
15 | B15 | 117000 pM | 670000 pM | 37000 pM | 71000 pM | –
16 | B16 | 270 pM | 580 pM | 110 pM | 120 pM | –
